The MegaScale stability set (Tsuboyama et al. 2023)

B1: EHEE_rd3_0053 (parent)
chain: TYTFKVDNKDQAKKAAKWAKKLGLSFQIEKHGDTFKITVQ

Variants of: B1
Assay: folding stability dG (cDNA display proteolysis); higher = more stable
Conditions: PBS, room temperature

Variant	folding stability dG
TYTFKVDNKDQAKKAAKFAKKLGLSFQIEKHGDTFKITVQ [W18F]	1.56 kcal/mol
TYTFKVDNKDQAKKAAKRAKKLGLSFQIEKHGDTFKITVQ [W18R]	1.5 kcal/mol
TYTFKVDNKDQAKKAAKQAKKLGLSFQIEKHGDTFKITVQ [W18Q]	1.17 kcal/mol
TYTFKVDNKDQAKKAAKLAKKLGLSFQIEKHGDTFKITVQ [W18L]	1.77 kcal/mol
TYTFKVDNKDQAKKAAKMAKKLGLSFQIEKHGDTFKITVQ [W18M]	1.68 kcal/mol
TYTFKVDNKDQAKKAAKKAKKLGLSFQIEKHGDTFKITVQ [W18K]	1.45 kcal/mol
TYTFKVDNKDQAKKAAKTAKKLGLSFQIEKHGDTFKITVQ [W18T]	1.1 kcal/mol
TYTFKVDNKDQAKKAAKHAKKLGLSFQIEKHGDTFKITVQ [W18H]	1.22 kcal/mol
TYTFKVDNKDQAKKAAKNAKKLGLSFQIEKHGDTFKITVQ [W18N]	0.859 kcal/mol
TYTFKVDNKDQAKKAAKEAKKLGLSFQIEKHGDTFKITVQ [W18E]	0.8 kcal/mol
TYTFKVDNKDQAKKAAKGAKKLGLSFQIEKHGDTFKITVQ [W18G]	0.349 kcal/mol
TYTFKVDNKDQAKKAAKVAKKLGLSFQIEKHGDTFKITVQ [W18V]	1.36 kcal/mol
TYTFKVDNKDQAKKAAKYAKKLGLSFQIEKHGDTFKITVQ [W18Y]	1.61 kcal/mol
TYTFKVDNKDQAKKAAKIAKKLGLSFQIEKHGDTFKITVQ [W18I]	1.72 kcal/mol
TYTFKVDNKDQAKKAAKAAKKLGLSFQIEKHGDTFKITVQ [W18A]	1.21 kcal/mol
TYTFKVDNKDQAKKAAKDAKKLGLSFQIEKHGDTFKITVQ [W18D]	0.328 kcal/mol
TYTFKVDNKDQAKKAAKSAKKLGLSFQIEKHGDTFKITVQ [W18S]	0.747 kcal/mol
TYTFKVDNKDQAKKAAKWAKKFGLSFQIEKHGDTFKITVQ [L22F]	2.08 kcal/mol
TYTFKVDNKDQAKKAAKWAKKNGLSFQIEKHGDTFKITVQ [L22N]	2.32 kcal/mol
TYTFKVDNKDQAKKAAKWAKKTGLSFQIEKHGDTFKITVQ [L22T]	1.41 kcal/mol
TYTFKVDNKDQAKKAAKWAKKKGLSFQIEKHGDTFKITVQ [L22K]	2.44 kcal/mol
TYTFKVDNKDQAKKAAKWAKKAGLSFQIEKHGDTFKITVQ [L22A]	2.08 kcal/mol
TYTFKVDNKDQAKKAAKWAKKIGLSFQIEKHGDTFKITVQ [L22I]	1.76 kcal/mol
TYTFKVDNKDQAKKAAKWAKKDGLSFQIEKHGDTFKITVQ [L22D]	-0.31 kcal/mol
TYTFKVDNKDQAKKAAKWAKKWGLSFQIEKHGDTFKITVQ [L22W]	2.21 kcal/mol

Variant	folding stability dG
TYTFKVDNKDQAKKAAKWAKKEGLSFQIEKHGDTFKITVQ [L22E]	1.46 kcal/mol
TYTFKVDNKDQAKKAAKWAKKYGLSFQIEKHGDTFKITVQ [L22Y]	2.3 kcal/mol
TYTFKVDNKDQAKKAAKWAKKVGLSFQIEKHGDTFKITVQ [L22V]	1.78 kcal/mol
TYTFKVDNKDQAKKAAKWAKKQGLSFQIEKHGDTFKITVQ [L22Q]	2.14 kcal/mol
TYTFKVDNKDQAKKAAKWAKKMGLSFQIEKHGDTFKITVQ [L22M]	2.54 kcal/mol
TYTFKVDNKDQAKKAAKWAKKCGLSFQIEKHGDTFKITVQ [L22C]	3.29 kcal/mol
TYTFKVDNKDQAKKAAKWAKKGGLSFQIEKHGDTFKITVQ [L22G]	0.897 kcal/mol
TYTFKVDNKDQAKKAAKWAKKSGLSFQIEKHGDTFKITVQ [L22S]	1.56 kcal/mol
TYTFKVDNKDQAKKAAKWAKKRGLSFQIEKHGDTFKITVQ [L22R]	2.63 kcal/mol
TYTFKVDNKDQAKKAAKWAKKHGLSFQIEKHGDTFKITVQ [L22H]	2.6 kcal/mol
TYTFKVDNKDQAKKAAKWFKKLGLSFQIEKHGDTFKITVQ [A19F]	2.84 kcal/mol
TYTFKVDNKDQAKKAAKWGKKLGLSFQIEKHGDTFKITVQ [A19G]	0.902 kcal/mol
TYTFKVDNKDQAKKAAKWIKKLGLSFQIEKHGDTFKITVQ [A19I]	2.44 kcal/mol
TYTFKVDNKDQAKKAAKWYKKLGLSFQIEKHGDTFKITVQ [A19Y]	2.32 kcal/mol
TYTFKVDNKDQAKKAAKWWKKLGLSFQIEKHGDTFKITVQ [A19W]	1.23 kcal/mol
TYTFKVDNKDQAKKAAKWMKKLGLSFQIEKHGDTFKITVQ [A19M]	2.79 kcal/mol
TYTFKVDNKDQAKKAAKWEKKLGLSFQIEKHGDTFKITVQ [A19E]	-0.425 kcal/mol
TYTFKVDNKDQAKKAAKWRKKLGLSFQIEKHGDTFKITVQ [A19R]	-0.112 kcal/mol
TYTFKVDNKDQAKKAAKWNKKLGLSFQIEKHGDTFKITVQ [A19N]	-0.253 kcal/mol
TYTFKVDNKDQAKKAAKWLKKLGLSFQIEKHGDTFKITVQ [A19L]	3.38 kcal/mol
TYTFKVDNKDQAKKAAKWSKKLGLSFQIEKHGDTFKITVQ [A19S]	0.85 kcal/mol
TYTFKVDNKDQAKKAAKWPKKLGLSFQIEKHGDTFKITVQ [A19P]	-0.671 kcal/mol
TYTFKVDNKDQAKKAAKWTKKLGLSFQIEKHGDTFKITVQ [A19T]	0.316 kcal/mol
TYTFKVDNKDQAKKAAKWHKKLGLSFQIEKHGDTFKITVQ [A19H]	0.465 kcal/mol
TYTFKVDNKDQAKKAAKWVKKLGLSFQIEKHGDTFKITVQ [A19V]	1.47 kcal/mol

Variant	folding stability dG
TYTFKVDNKDQAKKAAKWKKKLGLSFQIEKHGDTFKITVQ [A19K]	-0.645 kcal/mol
TYTFKVDNKDQAKKAAKWQKKLGLSFQIEKHGDTFKITVQ [A19Q]	-0.184 kcal/mol
TYTFKVDNKDQAKKAAKWAKKLFLSFQIEKHGDTFKITVQ [G23F]	1.3 kcal/mol
TYTFKVDNKDQAKKAAKWAKKLLLSFQIEKHGDTFKITVQ [G23L]	1.24 kcal/mol
TYTFKVDNKDQAKKAAKWAKKLRLSFQIEKHGDTFKITVQ [G23R]	1.66 kcal/mol
TYTFKVDNKDQAKKAAKWAKKLALSFQIEKHGDTFKITVQ [G23A]	1.23 kcal/mol
TYTFKVDNKDQAKKAAKWAKKLWLSFQIEKHGDTFKITVQ [G23W]	0.761 kcal/mol
TYTFKVDNKDQAKKAAKWAKKLELSFQIEKHGDTFKITVQ [G23E]	1.08 kcal/mol
TYTFKVDNKDQAKKAAKWAKKLVLSFQIEKHGDTFKITVQ [G23V]	0.722 kcal/mol
TYTFKVDNKDQAKKAAKWAKKLYLSFQIEKHGDTFKITVQ [G23Y]	1.1 kcal/mol
TYTFKVDNKDQAKKAAKWAKKLCLSFQIEKHGDTFKITVQ [G23C]	1.62 kcal/mol
TYTFKVDNKDQAKKAAKWAKKLNLSFQIEKHGDTFKITVQ [G23N]	1.97 kcal/mol
TYTFKVDNKDQAKKAAKWAKKLQLSFQIEKHGDTFKITVQ [G23Q]	1.52 kcal/mol
TYTFKVDNKDQAKKAAKWAKKLMLSFQIEKHGDTFKITVQ [G23M]	1.59 kcal/mol
TYTFKVDNKDQAKKAAKWAKKLILSFQIEKHGDTFKITVQ [G23I]	0.784 kcal/mol
TYTFKVDNKDQAKKAAKWAKKLSLSFQIEKHGDTFKITVQ [G23S]	1.42 kcal/mol
TYTFKVDNKDQAKKAAKWAKKLKLSFQIEKHGDTFKITVQ [G23K]	1.85 kcal/mol
TYTFKVDNKDQAKKAAKWAKKLDLSFQIEKHGDTFKITVQ [G23D]	1.02 kcal/mol
TYTFKVDNKDQAKKAAKWAKKLTLSFQIEKHGDTFKITVQ [G23T]	0.657 kcal/mol
TYTFKVDNKDQAKKAAKWAKKLHLSFQIEKHGDTFKITVQ [G23H]	1.79 kcal/mol
TYTFKVDNKDQAKKAAKWAKKLPLSFQIEKHGDTFKITVQ [G23P]	-0.809 kcal/mol
TYTFKVDNKDQAKKAAKWAKKLGTSFQIEKHGDTFKITVQ [L24T]	0.294 kcal/mol
TYTFKVDNKDQAKKAAKWAKKLGGSFQIEKHGDTFKITVQ [L24G]	0.159 kcal/mol
TYTFKVDNKDQAKKAAKWAKKLGFSFQIEKHGDTFKITVQ [L24F]	2.2 kcal/mol
TYTFKVDNKDQAKKAAKWAKKLGKSFQIEKHGDTFKITVQ [L24K]	1.32 kcal/mol

Variant	folding stability dG
TYTFKVDNKDQAKKAAKWAKKLGQSFQIEKHGDTFKITVQ [L24Q]	0.563 kcal/mol
TYTFKVDNKDQAKKAAKWAKKLGNSFQIEKHGDTFKITVQ [L24N]	0.22 kcal/mol
TYTFKVDNKDQAKKAAKWAKKLGESFQIEKHGDTFKITVQ [L24E]	-0.483 kcal/mol
TYTFKVDNKDQAKKAAKWAKKLGDSFQIEKHGDTFKITVQ [L24D]	-0.587 kcal/mol
TYTFKVDNKDQAKKAAKWAKKLGHSFQIEKHGDTFKITVQ [L24H]	1.31 kcal/mol
TYTFKVDNKDQAKKAAKWAKKLGISFQIEKHGDTFKITVQ [L24I]	1.73 kcal/mol
TYTFKVDNKDQAKKAAKWAKKLGRSFQIEKHGDTFKITVQ [L24R]	1.15 kcal/mol
TYTFKVDNKDQAKKAAKWAKKLGSSFQIEKHGDTFKITVQ [L24S]	0.343 kcal/mol
TYTFKVDNKDQAKKAAKWAKKLGMSFQIEKHGDTFKITVQ [L24M]	2.11 kcal/mol
TYTFKVDNKDQAKKAAKWAKKLGASFQIEKHGDTFKITVQ [L24A]	1.01 kcal/mol
TYTFKVDNKDQAKKAAKWARKLGLSFQIEKHGDTFKITVQ [K20R]	2.45 kcal/mol
TYTFKVDNKDQAKKAAKWAFKLGLSFQIEKHGDTFKITVQ [K20F]	2.07 kcal/mol
TYTFKVDNKDQAKKAAKWAGKLGLSFQIEKHGDTFKITVQ [K20G]	1.54 kcal/mol
TYTFKVDNKDQAKKAAKWAHKLGLSFQIEKHGDTFKITVQ [K20H]	2.01 kcal/mol
TYTFKVDNKDQAKKAAKWADKLGLSFQIEKHGDTFKITVQ [K20D]	1.48 kcal/mol
TYTFKVDNKDQAKKAAKWATKLGLSFQIEKHGDTFKITVQ [K20T]	2.24 kcal/mol
TYTFKVDNKDQAKKAAKWAAKLGLSFQIEKHGDTFKITVQ [K20A]	2.29 kcal/mol
TYTFKVDNKDQAKKAAKWAQKLGLSFQIEKHGDTFKITVQ [K20Q]	2.3 kcal/mol
TYTFKVDNKDQAKKAAKWAWKLGLSFQIEKHGDTFKITVQ [K20W]	2.14 kcal/mol
TYTFKVDNKDQAKKAAKWASKLGLSFQIEKHGDTFKITVQ [K20S]	2.08 kcal/mol
TYTFKVDNKDQAKKAAKWAIKLGLSFQIEKHGDTFKITVQ [K20I]	2.24 kcal/mol
TYTFKVDNKDQAKKAAKWAVKLGLSFQIEKHGDTFKITVQ [K20V]	1.98 kcal/mol
TYTFKVDNKDQAKKAAKWAYKLGLSFQIEKHGDTFKITVQ [K20Y]	2.13 kcal/mol
TYTFKVDNKDQAKKAAKWAEKLGLSFQIEKHGDTFKITVQ [K20E]	2.02 kcal/mol
TYTFKVDNKDQAKKAAKWALKLGLSFQIEKHGDTFKITVQ [K20L]	2.28 kcal/mol

Variant	folding stability dG
TYTFKVDNKDQAKKAAKWAMKLGLSFQIEKHGDTFKITVQ [K20M]	2.34 kcal/mol
TYTFKVDNKDQAKKAAKWANKLGLSFQIEKHGDTFKITVQ [K20N]	1.83 kcal/mol
TYTFKVDNKDQAKKAAKWAPKLGLSFQIEKHGDTFKITVQ [K20P]	-0.72 kcal/mol
TYTFKVDNKDQAKKAAKWACKLGLSFQIEKHGDTFKITVQ [K20C]	2.67 kcal/mol
TYTFKVDNKDQAKKAAYWAKKLGLSFQIEKHGDTFKITVQ [K17Y]	2.34 kcal/mol
TYTFKVDNKDQAKKAAVWAKKLGLSFQIEKHGDTFKITVQ [K17V]	2.23 kcal/mol
TYTFKVDNKDQAKKAAWWAKKLGLSFQIEKHGDTFKITVQ [K17W]	2.43 kcal/mol
TYTFKVDNKDQAKKAAKWAKALGLSFQIEKHGDTFKITVQ [K21A]	2.41 kcal/mol
TYTFKVDNKDQAKKAAKWAKILGLSFQIEKHGDTFKITVQ [K21I]	1.99 kcal/mol
TYTFKVDNKDQAKKAAKWAKWLGLSFQIEKHGDTFKITVQ [K21W]	2.19 kcal/mol
TYTFKVDNKDQAKKAAKWAKFLGLSFQIEKHGDTFKITVQ [K21F]	1.98 kcal/mol
TYTFKVDNKDQAKKAAKWAKVLGLSFQIEKHGDTFKITVQ [K21V]	1.89 kcal/mol
TYTFKVDNKDQAKKAAKWAKELGLSFQIEKHGDTFKITVQ [K21E]	2.02 kcal/mol
TYTFKVDNKDQAKKAAKWAKGLGLSFQIEKHGDTFKITVQ [K21G]	2.12 kcal/mol
TYTFKVDNKDQAKKAAKWAKMLGLSFQIEKHGDTFKITVQ [K21M]	2.4 kcal/mol
TYTFKVDNKDQAKKAAKWAKHLGLSFQIEKHGDTFKITVQ [K21H]	2.16 kcal/mol
TYTFKVDNKDQAKKAAKWAKPLGLSFQIEKHGDTFKITVQ [K21P]	-0.644 kcal/mol
TYTFKVDNKDQAKKAAKWAKNLGLSFQIEKHGDTFKITVQ [K21N]	2.17 kcal/mol
TYTFKVDNKDQAKKAAKWAKLLGLSFQIEKHGDTFKITVQ [K21L]	2.15 kcal/mol
TYTFKVDNKDQAKKAAKWAKQLGLSFQIEKHGDTFKITVQ [K21Q]	2.24 kcal/mol
TYTFKVDNKDQAKKAAKWAKYLGLSFQIEKHGDTFKITVQ [K21Y]	2.02 kcal/mol
TYTFKVDNKDQAKKAAKWAKSLGLSFQIEKHGDTFKITVQ [K21S]	2.43 kcal/mol
TYTFKVDNKDQAKKAAKWAKDLGLSFQIEKHGDTFKITVQ [K21D]	1.89 kcal/mol
TYTFKVDNKDQAKKAAKWAKTLGLSFQIEKHGDTFKITVQ [K21T]	2.16 kcal/mol
TYTFKVDNKDQAKKAAKWAKRLGLSFQIEKHGDTFKITVQ [K21R]	2.49 kcal/mol
